Measured values: patent publication US20250289905A1 (MIRIMGENE, published 2025)
Where a chain is given by its changes, count along the chain named. Names may count otherwise. Each block holds one binder with its values, some of them ahead of it.

Tests used:
[1] = target: T1, human WARS1 recombinant protein (human, UniProt P23381 2-471, limits assumed); test: cell-based or functional assay
T1 sequence: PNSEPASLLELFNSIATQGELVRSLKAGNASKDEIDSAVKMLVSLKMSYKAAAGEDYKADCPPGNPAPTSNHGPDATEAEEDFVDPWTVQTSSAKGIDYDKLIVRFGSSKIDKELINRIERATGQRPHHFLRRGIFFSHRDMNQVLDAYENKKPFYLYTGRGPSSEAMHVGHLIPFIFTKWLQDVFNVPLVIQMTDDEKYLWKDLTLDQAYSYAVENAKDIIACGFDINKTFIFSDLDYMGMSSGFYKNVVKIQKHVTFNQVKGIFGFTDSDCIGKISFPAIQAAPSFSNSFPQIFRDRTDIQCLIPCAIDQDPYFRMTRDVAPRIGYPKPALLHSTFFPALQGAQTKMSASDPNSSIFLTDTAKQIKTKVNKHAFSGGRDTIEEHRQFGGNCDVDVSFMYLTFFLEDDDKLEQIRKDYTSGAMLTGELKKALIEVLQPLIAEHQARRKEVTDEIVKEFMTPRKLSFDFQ

[2] = target: T2, rat-derived WARS1 recombinant protein (rat, UniProt Q6P7B0 1-481, limits assumed); test: western blot; recombinant protein
T2 construct: Recombinant, His-tagged (detected with anti-His tag antibody); construct not described; also called rat WARS1
T2 sequence (looked up): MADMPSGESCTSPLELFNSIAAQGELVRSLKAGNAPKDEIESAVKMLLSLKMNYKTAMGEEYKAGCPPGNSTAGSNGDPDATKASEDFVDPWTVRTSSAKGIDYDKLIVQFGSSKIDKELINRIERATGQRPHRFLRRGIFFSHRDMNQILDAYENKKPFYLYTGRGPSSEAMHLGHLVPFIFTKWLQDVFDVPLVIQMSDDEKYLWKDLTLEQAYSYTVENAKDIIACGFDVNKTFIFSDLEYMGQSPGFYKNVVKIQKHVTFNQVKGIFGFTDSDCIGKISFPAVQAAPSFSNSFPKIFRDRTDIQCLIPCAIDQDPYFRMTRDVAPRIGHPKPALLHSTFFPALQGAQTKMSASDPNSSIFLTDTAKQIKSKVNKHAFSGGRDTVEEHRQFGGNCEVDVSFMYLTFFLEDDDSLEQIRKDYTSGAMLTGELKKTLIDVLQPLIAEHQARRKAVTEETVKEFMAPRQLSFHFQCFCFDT
Procedure: (§1) At this time, a WARS1 recombinant protein (human, mouse, pig, marmoset (NHP), or rat-derived), cell culture medium, and human or mouse serum were used as WARS1 protein samples. In particular, the cell culture medium was used by treating the human monocyte cell line, THP-1, or the mouse macrophage cell line, J774.1A, with LPS (lipopolysaccharide, 100 ng/ml) for 24 hours to induce an inflammatory response, and then the cell culture supernatant was obtained for use.
(§2) 30 μg of each of the WARS1 recombinant protein (human, mouse, pig, marmoset (NHP), or rat-derived), the cell supernatant obtained using the method above, and mouse or human serum was loaded onto 8% SDS-PAGE, then transferred to a PVDF membrane (Millipore). Afterwards, the membrane was reacted with 1 μg/ml of GKB101 or a variant antibody thereof for 1 hour each, then washed with TBST (TBS+Tween20) three times. Afterwards, it was reacted with a secondary antibody (anti-human IgG HRP, Millipore) for 1 hour, then washed with TBST three times to be treated with ECL (West® bright ECL, Advanta) to identify its protein expression (LAS-4000, Fujifilm).

[3] = target: T3, mouse-derived WARS1 recombinant protein (mouse, UniProt P32921 1-481, limits assumed); test: western blot; recombinant protein, J774A.1 culture supernatant, mouse serum
T3 construct: Recombinant, His-tagged (detected with anti-His tag antibody); construct not described; In the western blot also secreted WARS1 from J774A.1 supernatant and mouse serum; also called mouse WARS1
T3 sequence (looked up): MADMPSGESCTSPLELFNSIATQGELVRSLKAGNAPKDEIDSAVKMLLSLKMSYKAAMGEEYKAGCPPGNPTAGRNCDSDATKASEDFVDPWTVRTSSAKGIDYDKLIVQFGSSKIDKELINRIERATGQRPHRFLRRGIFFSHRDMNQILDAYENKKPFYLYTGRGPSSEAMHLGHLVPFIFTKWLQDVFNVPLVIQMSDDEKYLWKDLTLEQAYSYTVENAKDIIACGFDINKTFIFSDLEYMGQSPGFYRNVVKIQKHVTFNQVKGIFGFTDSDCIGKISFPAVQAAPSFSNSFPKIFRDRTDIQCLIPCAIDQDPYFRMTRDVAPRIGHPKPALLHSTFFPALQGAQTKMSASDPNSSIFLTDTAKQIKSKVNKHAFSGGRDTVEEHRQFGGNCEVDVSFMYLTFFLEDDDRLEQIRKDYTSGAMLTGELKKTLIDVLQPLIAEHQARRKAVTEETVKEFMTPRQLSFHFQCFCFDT
Procedure: as §1, §2

[4] = target: T2, rat-derived WARS1 recombinant protein; test: direct ELISA
Procedure: (§3) Specifically, for direct ELISA, a 96-well plate (Maxisorp, Thermo Fisher) was coated with WARS1 having a 1 μg/ml concentration of a recombinant protein derived from human, marmoset (NHP), mouse, rat, and pig, and then blocked with PBS containing 1% BSA at room temperature for 1 hour. The GKB101 antibody or a variant antibody thereof was diluted in a concentration-dependent manner, added to each coated well, reacted at room temperature for 1 hour, and then washed four times with PBST (PBS+Tween20). Each well was treated and reacted for 1 hour with an antibody (anti-Human IgG, cell signaling) to which HRP is attached, and then washed with PBST. Lastly, after developing with a TMB substrate (BD), its absorbance was measured at 490 nm (NIVO) (FIGS. 4a to 5).

[5] = target: T1, human WARS1 recombinant protein; test: western blot; recombinant protein, THP-1 culture supernatant, human serum
Procedure: as §1, §2

[6] = target: T4, pig-derived WARS1 recombinant protein (pig) (UniProt K9IVV5); test: direct ELISA
T4 sequence: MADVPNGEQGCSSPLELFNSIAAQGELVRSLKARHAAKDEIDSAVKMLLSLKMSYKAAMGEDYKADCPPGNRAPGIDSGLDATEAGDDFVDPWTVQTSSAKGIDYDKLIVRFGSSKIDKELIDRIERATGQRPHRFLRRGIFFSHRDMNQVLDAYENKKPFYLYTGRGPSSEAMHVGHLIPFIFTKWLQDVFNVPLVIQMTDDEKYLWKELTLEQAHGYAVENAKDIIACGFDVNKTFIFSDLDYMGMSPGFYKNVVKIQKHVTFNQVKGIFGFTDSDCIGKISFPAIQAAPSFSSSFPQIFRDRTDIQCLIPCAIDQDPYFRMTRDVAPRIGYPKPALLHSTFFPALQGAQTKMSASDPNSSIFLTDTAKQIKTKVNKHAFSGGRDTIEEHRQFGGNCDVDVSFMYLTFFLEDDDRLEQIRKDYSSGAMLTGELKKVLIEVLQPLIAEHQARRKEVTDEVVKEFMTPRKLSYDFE

[7] = target: T3, mouse-derived WARS1 recombinant protein; test: direct ELISA
Procedure: as §3

[8] = target: marmoset (NHP)-derived WARS1 recombinant protein (marmoset (NHP)) (UniProt U3CR73); test: direct ELISA
[9] = target: T1, human WARS1 recombinant protein; test: direct ELISA
Procedure: as §3

B1: GKB101 (antibody, V domains shown)
VH: EVQLLESGGGLVQPGGSLRLSCAASGFTFSSYDMSWVRQAPGKGLEWVSAISSGGSSIYYADSVKGRFTISRDNSKNTLYLQMNSLRAEDTAVYYCARDVAWDMLGDFDYWGQGTLVTVSS
VL: QSVLTQPPSASGTPGQRVTISCTGSSSNIGSNYVYWYQQLPGTAPKLLIYANSHRPSGVPDRFSGSKSGTSASLAISGLRSEDEADYYCGAWDDSLSAYVFGGGTKLTVLT
notes: Parent antibody; expressed in Expi293 cells; also called GKB101 antibody; anti-WARS1 antibody
secretion of TNF-α in mouse macrophage J774A.1 cells [1]: ≥ 40%
binding result [2]: binds
binding result [3]: binds

B2: H54L (antibody, V domains shown)
VH: B1 VH
VL: B1 VL with H54L
notes: L-CDR2 variant of GKB101; also called H54L antibody
Kd [4]: ~1 pM
binding result [5]: binds
binding result [3]: binds

B3: H54Q (antibody, V domains shown)
VH: B1 VH
VL: B1 VL with H54Q
notes: L-CDR2 variant of GKB101; also called H54Q antibody
Kd [6]: 1 nM
Kd [7]: ~1 pM
Kd [4]: ~1 pM
binding result [5]: binds

B5: S53V (antibody, V domains shown)
VH: B1 VH
VL: B1 VL with S53V
notes: L-CDR2 variant of GKB101; also called S53V antibody
Kd [6]: 1 nM
Kd [7]: ~1 pM
Kd [4]: ~1 pM
binding result [5]: binds

B10: S53Q (antibody, V domains shown)
VH: B1 VH
VL: B1 VL with S53Q
notes: L-CDR2 variant of GKB101; also called S53Q antibody
Kd [6]: 1 nM
Kd [9]: ~1 pM
Kd [7]: ~1 pM
Kd [4]: ~1 pM
secretion of TNF-α in mouse macrophage J774A.1 cells [1]: ≥ 40%

B12: SH/QL (antibody, V domains shown)
VH: B1 VH
VL: B1 VL with S53Q, H54L
notes: L-CDR2 variant of GKB101; also called SH/QL antibody
Kd [9]: ~1 pM
Kd [7]: ~1 pM
Kd [4]: ~1 pM

B13: S53I (antibody, V domains shown)
VH: B1 VH
VL: B1 VL with S53I
notes: L-CDR2 variant of GKB101; also called S53I antibody
secretion of TNF-α in mouse macrophage J774A.1 cells [1]: ≥ 40%
binding result [2]: binds
binding result [3]: binds

B15: H54K (antibody, V domains shown)
VH: B1 VH
VL: B1 VL with H54K
notes: L-CDR2 variant of GKB101; also called H54K antibody; M105A
Kd [6]: 1 nM
Kd [9]: ~1 pM
Kd [7]: ~1 pM
Kd [4]: ~1 pM
secretion of TNF-α in mouse macrophage J774A.1 cells [1]: ≥ 40%

B16: S53L (antibody, V domains shown)
VH: B1 VH
VL: B1 VL with S53L
notes: L-CDR2 variant of GKB101; also called S53L antibody
Kd [6]: 1 nM
secretion of TNF-α in mouse macrophage J774A.1 cells [1]: ≥ 40%
binding result [2]: binds
binding result [3]: binds

Second part, the binder after the results:

binding result [2]: binds
binding result [5]: binds
binding result [3]: binds
B4: SH/LL (antibody, V domains shown)
VH: B1 VH
VL: B1 VL with S53L, H54L
notes: L-CDR2 variant of GKB101; also called SH/LL antibody

binding result [2]: binds
binding result [5]: binds
binding result [3]: binds
B6: SH/IL (antibody, V domains shown)
VH: B1 VH
VL: B1 VL with S53I, H54L
notes: L-CDR2 variant of GKB101; also called SH/IL antibody

Kd [8]: 1 pM
Kd [9]: ~1 pM
Kd [7]: ~1 pM
Kd [4]: ~1 pM
B7: SHL/ILN (antibody, V domains shown)
VH: B1 VH
VL: B1 VL with S53I, H54L, L96N
notes: L-CDR2 and L-CDR3 variant of GKB101; also called SHL/ILN antibody

binding result [2]: binds
binding result [5]: binds
binding result [3]: binds
B8: S53T (antibody, V domains shown)
VH: B1 VH
VL: B1 VL with S53T
notes: L-CDR2 variant of GKB101; also called S53T antibody

Kd [8]: 1 pM
Kd [9]: ~1 pM
Kd [7]: ~1 pM
Kd [4]: ~1 pM
secretion of TNF-α in mouse macrophage J774A.1 cells [1]: ≥ 40%
B9: SHL/LLN (antibody, V domains shown)
VH: B1 VH
VL: B1 VL with S53L, H54L, L96N
notes: L-CDR2 and L-CDR3 variant of GKB101; also called SHL/LLN antibody

binding result [2]: binds
binding result [5]: binds
binding result [3]: binds
B11: H54F (antibody, V domains shown)
VH: B1 VH
VL: B1 VL with H54F
notes: L-CDR2 variant of GKB101; also called H54F antibody

binding result [2]: binds
binding result [5]: binds
binding result [3]: binds
B14: H54I (antibody, V domains shown)
VH: B1 VH
VL: B1 VL with H54I
notes: L-CDR2 variant of GKB101; also called H54I antibody
